Data from patent publication US20260308258 (published 2026).
Substitutions are numbered along the chain they refer to. Like-named read-outs stand apart in the source and are kept apart here.

Experiments:
CD16b-NA1 ECD [1] = target: T1, CD16b-NA1 ECD (human); experiment: ELISA
T1 chain: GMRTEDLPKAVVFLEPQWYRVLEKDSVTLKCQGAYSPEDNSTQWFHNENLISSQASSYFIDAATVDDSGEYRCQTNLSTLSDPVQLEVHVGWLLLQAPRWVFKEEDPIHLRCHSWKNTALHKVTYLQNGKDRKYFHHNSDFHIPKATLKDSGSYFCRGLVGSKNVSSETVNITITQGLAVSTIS

CD16a-V ECD [2] = target: CD16a-V ECD (human); experiment: ELISA
CD16b-NA2 ECD [3] = target: T2, CD16b-NA2 ECD (human); experiment: ELISA
T2 chain: T1 chain with R20S, N49S, D66N, V90I

CD16a-F ECD-Fc = CD16a-F ECD-Fc (human); experiment: ELISA
CD16a-F ECD [4] = target: CD16a-F ECD (human); experiment: ELISA, + 10 mg/ml hIgG
CD16a-F ECD [5] = target: CD16a-F ECD (human); experiment: ELISA
CD16a-V ECD [6] = target: CD16a-V ECD (human); experiment: ELISA, + 10 mg/ml hIgG
CD16b-NA2 ECD [7] = target: T2, CD16b-NA2 ECD; experiment: ELISA
CD16a-F ECD [8] = target: CD16a-F ECD (human); experiment: ELISA; remark: listed apart in the source
[9] = target: T3, CD16b-NA1 ECD deglycosylated (human); experiment: ELISA
T3 chain: T1 chain

CD16b-NA2 ECD [10] = target: T2, CD16b-NA2 ECD; experiment: ELISA
CD16a-V ECD [11] = target: CD16a-V ECD (human); experiment: ELISA; remark: listed apart in the source
CD16b-NA2 ECD [12] = target: T2, CD16b-NA2 ECD; experiment: BLI, 30C
CD16b-NA1 ECD [13] = target: T1, CD16b-NA1 ECD; experiment: ELISA
[14] = target: CD16a-F ECD deglycosylated (human); experiment: ELISA
CD16b on neutrophils = target: T4, CD16b on neutrophils (human, UniProt O75015); experiment: FACS, neutrophils
T4 chain: T1 chain with R20S, D66N, V90I

CD16a-F D82N = CD16a-F D82N (human); experiment: FACS
Chain of CD16a-F D82N (human) (chain, as listed by the source D82N): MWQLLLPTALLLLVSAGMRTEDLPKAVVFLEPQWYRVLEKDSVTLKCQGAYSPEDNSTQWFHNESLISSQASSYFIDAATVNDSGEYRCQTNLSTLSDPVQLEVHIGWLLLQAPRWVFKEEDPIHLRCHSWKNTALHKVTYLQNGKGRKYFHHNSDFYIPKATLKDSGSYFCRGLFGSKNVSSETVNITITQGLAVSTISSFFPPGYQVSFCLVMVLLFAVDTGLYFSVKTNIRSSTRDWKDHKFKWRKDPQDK

[15] = target: CD16a-V ECD deglycosylated (human); experiment: ELISA
Cyno CD16a ECD = target: T5, Cyno CD16a ECD (cynomolgus); experiment: BLI, 30C
T5 chain: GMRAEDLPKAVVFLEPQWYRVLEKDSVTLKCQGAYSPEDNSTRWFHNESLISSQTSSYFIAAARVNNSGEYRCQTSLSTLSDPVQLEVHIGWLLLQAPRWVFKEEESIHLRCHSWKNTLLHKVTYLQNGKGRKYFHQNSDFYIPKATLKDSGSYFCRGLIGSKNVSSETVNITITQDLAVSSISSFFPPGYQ

Mouse FcgRIV = target: T6, Mouse FcgRIV (mouse, UniProt A0A0B4J1G0); experiment: BLI, 30C
T6 chain: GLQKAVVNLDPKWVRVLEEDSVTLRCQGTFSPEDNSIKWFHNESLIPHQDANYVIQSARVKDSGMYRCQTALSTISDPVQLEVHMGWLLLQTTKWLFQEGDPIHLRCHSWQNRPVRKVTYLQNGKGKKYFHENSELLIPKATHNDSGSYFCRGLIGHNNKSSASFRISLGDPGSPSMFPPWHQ

CD16a-F ECD [16] = target: CD16a-F ECD (human); experiment: BLI, 30C
[17] = target: T7, CD16b-NA2 ECD deglycosylated (human); experiment: ELISA
T7 chain: T1 chain with R20S, N49S, D66N, V90I

CD16a-F ECD [18] = target: CD16a-F ECD (human); experiment: ELISA; remark: listed apart in the source
CD16b-NA1 ECD [19] = target: T1, CD16b-NA1 ECD; experiment: BLI, 30C
CD16a-V ECD [20] = target: CD16a-V ECD (human); experiment: ELISA; remark: listed apart in the source
CD16a-V ECD [21] = target: CD16a-V ECD (human); experiment: BLI, 30C

B1: #3A2 IgG1 (antibody)
chain 1: QLQLQESGPGLVKPSETLSLTCTVSGGSIGRGDYYWGWIRQPPGKGLEWIGTIDYSGRTYYNPSLKSRVTISVDTSKNQFSLKLSSVTAADTAVYYCARAFPGEYFGVFDHWGQGTLVTVSS
chain 2: EIVLTQSPGTLSLSPGERATLSCRASQSVSSSYLAWYQQKPGQAPRLLIYDATSRATGIPDRFSGSGSGTDFTLTISRLEPEDFAVYYCQQYDSSSLITFGQGTKVEIK
**Q.** For B1, which Kd (CD16b-NA1 ECD [1]) is on record?
**A.** > 1000 nM

**Q.** What about the Kd (CD16a-V ECD [2]) of the same binder?
**A.** 0.051 nM

**Q.** And the Kd (CD16b-NA2 ECD [3])?
**A.** 546 nM

**Q.** And the Kd (CD16a-F ECD-Fc)?
**A.** 0.11 nM

**Q.** And the Kd (CD16a-F ECD [4])?
**A.** 0.74 nM

**Q.** And the Kd (CD16a-F ECD [5])?
**A.** 0.048 nM

**Q.** And the Kd (CD16a-V ECD [6])?
**A.** 0.53 nM

B2: #55 IgG1 (antibody)
chain 1: EVQLLESGGGLVQPGGSLRLSCAASGFTFSNYAMSWVRQAPGKGLEWVSAISGGGSYTYYADSVKGRFTISRDNSKNTLYLQMNSLRAEDTAVYYCARTYLRRWYYFDYWGQGTLVTVSS
chain 2: DIQMTQSPSSLSASVGDRVTITCRASQTITSYLNWYQQKPGKAPKLLIYAASSLQSGVPSRFSGSGSGTDFTLTISSLQPEDFATYYCQQSYTSPVTFGQGTKVEIK
**Q.** What does the source list for B2?
**A.** Kd (CD16b-NA2 ECD [7]): 239 nM; Kd (CD16a-F ECD [8]): 0.28 nM; Kd [9]: 11.2 nM; Kd (CD16b-NA2 ECD [10]): ~200 nM; Kd (CD16a-V ECD [11]): 0.4 nM; Kd (CD16b-NA2 ECD [12]): 214 nM; Kd (CD16b-NA1 ECD [13]): 73 nM; Kd [14]: 1 nM; binding result (CD16b on neutrophils): no binding; binding result (CD16a-F D82N): no binding; Kd [15]: 0.53 nM; binding result (Cyno CD16a ECD): no binding; binding result (Mouse FcgRIV): no binding; Kd (CD16a-F ECD [16]): 18 nM; Kd [17]: 1 nM; Kd (CD16a-F ECD-Fc): 0.1 nM; Kd (CD16a-F ECD [18]): 0.98 nM; binding result (CD16b-NA1 ECD [19]): no binding; Kd (CD16a-V ECD [20]): 0.85 nM; Kd (CD16a-V ECD [21]): 6.6 nM

B3: #6A2 IgG1 (antibody)
chain 1: B1 chain 1
chain 2: not shown
**Q.** Which Kd (CD16b-NA1 ECD [1]) does the source give for B3 here?
**A.** 1300 nM

**Q.** And the Kd (CD16a-V ECD [2])?
**A.** 0.16 nM

**Q.** And the Kd (CD16b-NA2 ECD [3])?
**A.** 298 nM

**Q.** What about the Kd (CD16a-F ECD-Fc) of the same binder?
**A.** 0.13 nM

**Q.** And the Kd (CD16a-F ECD [4])?
**A.** 0.67 nM

**Q.** And the Kd (CD16a-F ECD [5])?
**A.** 0.14 nM

**Q.** What about the Kd (CD16a-V ECD [6]) of the same binder?
**A.** 0.61 nM
